In patent publication US20120115948A1:

Molecular target: mitotic APC (Anaphase-Promoting Complex immunoprecipitated from mitotic Xenopus extract) (Xenopus)
Assay: immunoprecipitated APC-Cdc20 resuspended in mitotic extract with TAME, beads re-isolated, Western blot

half-life of dissociation: 1 min
Substance: Cdc20 (endogenous Xenopus Cdc20)
